In article doi:10.1101/2022.04.11.487660 (bioRxiv, 2022):

Molecular target: lysozyme (UniProt P00698)
Assay: ELISA

B1: camel nanobody 1ZVH, displayed on phage (VHH)
VHH: DVQLVESGGGSVQAGGSLRLSCAASGYIASINYLGWFRQAPGKEREGVAAVSPAGGTPYYADSVKGRFTVSLDNAENTVYLQMNSLKPEDTALYYCAAARQGWYIPLNSYGYNYWGQGTQVTVSS
  binding result: binds
